The target of test [1] is M2e consensus peptide (free, soluble) (Influenza A virus (consensus of H1, H2 and H3 subtypes of human Influenza A viruses)). Description: Friguet ELISA, free M2e peptide in solution. In general terms: An ELISA detects its analyte on a solid surface through an enzyme-linked reagent.
Test [2] has as its target M2e-short (Influenza A virus (consensus)). As to the kind of experiment: ELISA, apparent affinity, purified scFv-msFcγ2c on immobilised M2e-short.

As usually defined, the EC50 is the concentration at which the effect is half-maximal. As usually defined, the Kd is a measure of binding affinity in units of concentration. Read a low Kd as a tighter complex.

Consider SLLTEVETPIRNEWGC (modifications not checked) [M2e-short], for which the 50% effective concentration (EC50) with scFv-D005-msFcγ2c was 27.5 µM; with scFv-F052-msFcγ2c, 46.8 µM.

B1: scFv-D005-msFcγ2c (Fc fusion)
chain: DADPAQAAELVMTQSPDSLAVSLGERATINCKSSQSVLYTSNNKNYLGWYQQKPGQPPNLLIYWASTRESGVPDRFSGSGSGTDFTLTINSVQAEDVAVYYCQQYFMTPITFGQGTRLEIKGGSSRSSSSGGGGSGGGGEVQLVESGGALVQPGRSLRLSCRTSGLNFGDYPINWVRQAPGKGLEWVGFIKSKSYGVTTEFAASVEGRFTISRDDSRGIAYLQMNSLKTEDTAVYYCTSSSGFLYYFDYWGQGTLVTVSSASTKGPSVTSGQAGRKLEPRVPITQNPCPPLKECPPCAAPDLLGGPSVFIFPPKIKDVLMISLSPMVTCVVVDVSEDDPDVQISWFVNNVEVHTAQTQTHREDYNSTLRVVSALPIQHQDWMSGKEFKCKVNNRALPSPIEKTISKPRGPVRAPQVYVLPPPAEEMTKKEFSLTCMITGFLPAEIAVDWTSNGRTEQNYKNTATVLDSDGSYFMYSKLRVQKSTWERGSLFACSVVHEGLHNHLTTKTISRSLGK
In turn, B1 returned an equilibrium dissociation constant (Kd) in test [1] of 0.004 µM. Also, the EC50 in test [2] was found to be 0.0809 nM.

SLLTEVETPIRNEWGCRCNDSSD (modifications not checked) [M2e consensus peptide (free, soluble)]: the values for the EC50 with scFv-D005-msFcγ2c and with scFv-F052-msFcγ2c were 18.8 µM and 22 µM, respectively.

B2: scFv-F052-msFcγ2c (Fc fusion)
chain: DADPAQAAERVMTQSPDALAVSLGERATINCKSSQSLLYSSNNKNYLAWYQKKPGQPPKLLIYWASTRESGVPDRFSGSGSGTEFTLTINSVQAEDVAVYYCQQYFMTPITFGQGTKLEIKGGSSRSSSSGGGGSGGGGQVQLQESGGALVQPGRSLRLSCRTSGLNFGDYPINWVRQAPGKGLEWVGFIKSKSYGVTTEFAASVEGRFTISRDDSRGIAYLQMNSLKTEDTAVYYCTSSSGFLYYFDYWGQGTLVTVSSASTKGPSVTSGQAGRKLEPRVPITQNPCPPLKECPPCAAPDLLGGPSVFIFPPKIKDVLMISLSPMVTCVVVDVSEDDPDVQISWFVNNVEVHTAQTQTHREDYNSTLRVVSALPIQHQDWMSGKEFKCKVNNRALPSPIEKTISKPRGPVRAPQVYVLPPPAEEMTKKEFSLTCMITGFLPAEIAVDWTSNGRTEQNYKNTATVLDSDGSYFMYSKLRVQKSTWERGSLFACSVVHEGLHNHLTTKTISRSLGK
Turning to B2, the Kd in test [1] is 0.005 µM. In addition, the EC50 in test [2] was 0.0628 nM.

Values taken from patent publication US20110268740A1.
